# Measured values taken from the supplement of paper PMC9170038.
# Test system: MS2 coat protein
# Experiment: apparent KD of MS2 coat protein; higher = weaker reporter binding
# Settings: Eterna round: R107; input ligand: theophylline 20 uM
# Method in brief: (§1)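 Illumina sequencing clusters were used for on-chip transcription of designed RNA switches. Titration with SNAP-549-labelled MS2 coat protein followed, in twofold steps from 0.7 or 1.5 nM to 3 µM in 100 mM Tris-HCl pH 7.5, 80 mM KCl, 4 mM MgCl2, without or with constant ligand. Apparent KD is each design's median of fits to normalised cluster binding curves.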
row,Sequence,apparent KD of MS2 coat protein [nM]
1,GGUACAUGAGGAUCACCCAUGUAUUAGUGCCGAGGACCGGUACGGCCGCCACUCGCUUCACAUGAGGAUCACCCAUGUGUCACUG [SSTA DOUBLE!!! :-D #14],35.9
2,UCCAGACAUGAGGAUCACCCAUGUUGUGAUACCAGAACCGUGGAGUUCCCUUGGCAGCACUAAGAAGUUCCUGGAUCAGCUAGCG [theeternabot_sameState_MS2_Theo_A_9],36.2
3,AAUAAUAGGUGAUCUUGUGUCGUACCGUAACGAGGACCGGUACGGCCGCCACUCGAACAUGAGGAUCACCCAUGUAUGUAUGAUA [whbob_SS_trypto A_f7],301
4,ACAUGAGGAUCACCCAUGUCACUCGUGUUCCGAGGACCGGUACGGCCGCCACUCGGUCCUCGCGAGGAUGGUCAAAGACUAUCCA [Omei Trp A SS B v2],66.8
5,ACGACAUGAGGAUCACCCAUGUACUCUGAAGGAGCGUCGAUUACGACAGGUAGGUCGCAGGCUAAGGAUGGUGAUGCUCAAGACG [Exclusion Arginine A GF8],90.4
6,AACAUGAGGAUCACCCAUGUAUUGGGUGAUACCAGCCUGAAUAAGGGCCCUUGGCAGCACCGCGCUAACUUUAUGUCUGCGAACC [Rebiercete],432
7,UAUAAAAUAACAGAUACCAGCGUGUUAUAAAACAUGAGGAUCACCCAUGUAGUGAUCAAGCGCCCUUGGCAGCUGGUAUUUUAUG [7.C],166
8,UACAGUACAACAGAUACCAGACAGUACUCUAGAUUGCAACAUGAGGAUCACCCAUGUAUAGUCCCUUGGCAGCUGUAAUGGGUGA [Theo B SS s1],195
9,CUCCCGUGGUCGGCCGCCACUGGAGGCCUUGCGCGACAUGAGGAUCACCCAUGUGUGCCCGGCGUCAGGACCGGGAUCGCGUGAG [#1 Same State - Tryptophan B Attempt #12 (HarryS)],18.7
10,ACCUGCGUUUGUUUCUUUCUGACGCAGGUUCGAGGACCGGUACGGCCGCCACUCGGACAUGAGGAUCACCCAUGUUUGAAAUGGG [#01 Exclusion Tryptophan A],248
11,GUCUGAGUCUGAAGGAGCGACAUGAGGAUCACCCAUGUCUCCCGUUAUGGGAGUUCCUUAGGUCAGGUAGGUCGCAGACUCAGAC [#1 Exclusion - Arginine B Attempt #26 (Inspired by Omei)],139
12,AUAGUCUUGAGUGAUACCAGACUACAUGAGGAUCACCCAUGUUUCUUUUGGUUAUCAUGUGUCCCUUGGCAGCACGCAUGUAUAG [JR_ExcTheophyB_Sub014],28
13,AACCACAUGAGGAUCACCCAUGUGACCGCUCGAGGACCGGUACGGCCGCCACUCGUGGAGGGACUUAUGCGUUAUCCGGGUAAAU [theeternabot_sameState_MS2_Trp_A_29],27
14,GGUGGGACUUGUGAUACCAGCCCAGUUCUAAUCGAACUGCACAUGAGGAUCACCCAUGUCGGCCCUUGGCAGCAUGAGUAUUUAU [Esceesor],160
15,UUGUUGUUUGGAAGGAGCGUGUAUGAUUAAGAACAUGAGGAUCACCCAUGUUGUAGGGUAGCACAGGUAGGUCGCCGGGUGGUGG [11.V],36.8
16,UCGUGUGUUUCGGAUACCAGUGAAAUCGAUACAUGAGGAUCACCCAUGUGAGAGGAUGUACACCCUUGGCAGCUGUCUGUAGCGG [asczmullin],38
17,CCUUUUAUUAAUGAUACCAGCGUAUUAAGCAUCACCUUGGACAUGAGGAUCACCCAUGUACGCCCUUGGCAGCAUACCACUGGGU [theeternabot_exclusion_MS2_Theo_B_5],52.2

# Same assay, conditions: Eterna round: R107; input ligand: theophylline 2 mM
row,Sequence,apparent KD of MS2 coat protein [nM]
1,AGGUGACAUGAGGAUCACCCAUGUGGCUUACGAGGACCGGUACGGCCGCCACUCGGUGUGACCUCCGCAUUCACAUAAUAAUCUU [Rilala],126
2,UGUAUGGACUGAAGGAGCGCCUCAAAUAACAUGAGGAUCACCCAUGUGGACAAAGUCCUUGGGCAGGUAGGUCGCAGUCCAUACU [ArgBX 5 #StaticStem #MS2Late],92.3
3,AUACAUGAGGAUCACCCAUGUCUUACGGAAGGAGCGAUCAAGAGAUCAGGUAGGUCGCCGUACAUGAGGAUCACCCAUGUAGGCG [EAA NP+V+V2 #9 DOUBLE],35.7
4,AUUAAUAAUAUGUAGACGGCGGAGAAGAGACGAGGACCGGUACGGCCGCCACUCGUGUUAGUUAACAUGAGGAUCACCCAUGUUA [#09 Tryptophan A Same State],12.6
5,AAUGGCCGUACCGGAAGGGUGAUCCUCAAACGAGGACCGGUACGGCCGCCACUCGAUAACAUGAGGAUCACCCAUGUAAUACAUA [whbob_X-Trypto_V2.0],699
6,UUUUACAUGAGGAUCACCCAUGUACAUGGGCGAGGACCGGUACGGCCGCCACUCGUGGGACCCACGGGCCCGCUUAGUGGGUACA [LarryB_001],189
7,GAGUACACUACGGCCGCCACUCAAGGAGCUACAUAGCUCCUAGACAUGAGGAUCACCCAUGUACCGAGGACCGGGUAGAUCCUUA [Same State Typrtophan B GF2],294
8,UAUCGUCAGACGGCCGCCACUAGAACAUGAGGAUCACCCAUGUAAGUGGCUGGUUCAUGGGUGUCUAGGACCGGGUCUGACGAAU [(Trp1)-(Ms2)-(T)'-(M)'-(Trp2)_Design20],17.6
9,GGUACAUGAGGAUCACCCAUGUAUUAGUGCCGAGGACCGGUACGGCCGCCACUCGCUUCACAUGAGGAUCACCCAUGUGUCACUG [SSTA DOUBLE!!! :-D #14],36.1
10,AAUAAUAGGUGAUCUUGUGUCGUACCGUAACGAGGACCGGUACGGCCGCCACUCGAACAUGAGGAUCACCCAUGUAUGUAUGAUA [whbob_SS_trypto A_f7],497
11,ACAUGAGGAUCACCCAUGUCACUCGUGUUCCGAGGACCGGUACGGCCGCCACUCGGUCCUCGCGAGGAUGGUCAAAGACUAUCCA [Omei Trp A SS B v2],71.4
12,ACGACAUGAGGAUCACCCAUGUACUCUGAAGGAGCGUCGAUUACGACAGGUAGGUCGCAGGCUAAGGAUGGUGAUGCUCAAGACG [Exclusion Arginine A GF8],114
13,AACAUGAGGAUCACCCAUGUAUUGGGUGAUACCAGCCUGAAUAAGGGCCCUUGGCAGCACCGCGCUAACUUUAUGUCUGCGAACC [Rebiercete],368
14,CUCCCGUGGUCGGCCGCCACUGGAGGCCUUGCGCGACAUGAGGAUCACCCAUGUGUGCCCGGCGUCAGGACCGGGAUCGCGUGAG [#1 Same State - Tryptophan B Attempt #12 (HarryS)],19.7
15,ACCUGCGUUUGUUUCUUUCUGACGCAGGUUCGAGGACCGGUACGGCCGCCACUCGGACAUGAGGAUCACCCAUGUUUGAAAUGGG [#01 Exclusion Tryptophan A],313
16,GUCUGAGUCUGAAGGAGCGACAUGAGGAUCACCCAUGUCUCCCGUUAUGGGAGUUCCUUAGGUCAGGUAGGUCGCAGACUCAGAC [#1 Exclusion - Arginine B Attempt #26 (Inspired by Omei)],172
17,AACCACAUGAGGAUCACCCAUGUGACCGCUCGAGGACCGGUACGGCCGCCACUCGUGGAGGGACUUAUGCGUUAUCCGGGUAAAU [theeternabot_sameState_MS2_Trp_A_29],20.9
18,UUGUUGUUUGGAAGGAGCGUGUAUGAUUAAGAACAUGAGGAUCACCCAUGUUGUAGGGUAGCACAGGUAGGUCGCCGGGUGGUGG [11.V],31.2

# Same assay, conditions: Eterna round: R107; input ligand: tryptophan 2.4 mM
row,Sequence,apparent KD of MS2 coat protein [nM]
1,UGUAUGGACUGAAGGAGCGCCUCAAAUAACAUGAGGAUCACCCAUGUGGACAAAGUCCUUGGGCAGGUAGGUCGCAGUCCAUACU [ArgBX 5 #StaticStem #MS2Late],82.2
2,AGACAUGAGGAUCACCCAUGUGAAGUGGAUACCAGCCGCAGCGAUGGCCCUUGGCAGCCAGCUUUGUGUCGAUACAUCCGCACUU [theeternabot_exclusion_MS2_Theo_A_2],18.1
3,CGUGUGCGUUCUGAUACCAGAGACAUGAGGAUCACCCAUGUCCGAUCGUCCUGCCUCAGACUCCCUUGGCAGCAGGUUUUGUGCU [Exclusion Theophylline B GF4],50.2
4,UAUAUAUAUAGUGAUACCAGCAGAGAAAACGUUUAUCCUAACAUGAGGAUCACCCAUGUAUGCCCUUGGCAGCGUUAUAUAUAUA [8.E],21.9
5,CUUAUACAUGAGGAUCACCCAUGUGGUGAUACCAGCCACGAUCAAGGCCCUUGGCAGCACAAAGGGAAUAAUAUGAUUACAAAAC [theeternabot_sameState_MS2_Theo_A_6],489
6,AUACAUGAGGAUCACCCAUGUCUUACGGAAGGAGCGAUCAAGAGAUCAGGUAGGUCGCCGUACAUGAGGAUCACCCAUGUAGGCG [EAA NP+V+V2 #9 DOUBLE],31.3
7,AUUAAUAAUAUGUAGACGGCGGAGAAGAGACGAGGACCGGUACGGCCGCCACUCGUGUUAGUUAACAUGAGGAUCACCCAUGUUA [#09 Tryptophan A Same State],11.9
8,UAUAUAUAUAUUGAUACCAGCAGAGAAAACAUAUAUCCUAACAUGAGGAUCACCCAUGUAUGCCCUUGGCAGCGAUAUAUAUAUA [8.A],23.5
9,ACAUGAGGAUCACCCAUGUUCCUCAUUGAUACCAGUGAAUUUAGACGCCCUUGGCAGCGAGUUUUUUUAUAAGAUUUUUUUUUUU [6.I],916
10,AAUAACAUGAGGAUCACCCAUGUAAAAGAUACCAGAGUGAUGAUCCUCCCUUGGCAGCUUAACGCUGAUUGAUUACAAUCAGCGA [TheoAS 3 #Tail #MS2BeforeAptamer #BothOrNeither],67.1
11,UUUUACAUGAGGAUCACCCAUGUACAUGGGCGAGGACCGGUACGGCCGCCACUCGUGGGACCCACGGGCCCGCUUAGUGGGUACA [LarryB_001],57.4
12,GCACCAGGUACGGAUACCAGCUAUAGGCCCUAUGGGCGACAUGAGGAUCACCCAUGUAAUGGCCCUUGGCAGCUGUACCUGGUGC [SSThB NP+V+V2 #10 +-Same Structure],169
13,UAUUUGGUGCGCGAGCGCUGGAUAAUUGAUACCAGUGAAGAAGAGCGCCCUUGGCAGCGAAUCCUAACAUGAGGAUCACCCAUGU [5.R],38.7
14,UCCAGACAUGAGGAUCACCCAUGUUGUGAUACCAGAACCGUGGAGUUCCCUUGGCAGCACUAAGAAGUUCCUGGAUCAGCUAGCG [theeternabot_sameState_MS2_Theo_A_9],30
15,ACAUGAGGAUCACCCAUGUCACUCGUGUUCCGAGGACCGGUACGGCCGCCACUCGGUCCUCGCGAGGAUGGUCAAAGACUAUCCA [Omei Trp A SS B v2],48.6
16,ACGACAUGAGGAUCACCCAUGUACUCUGAAGGAGCGUCGAUUACGACAGGUAGGUCGCAGGCUAAGGAUGGUGAUGCUCAAGACG [Exclusion Arginine A GF8],57.8
17,AACAUGAGGAUCACCCAUGUAUUGGGUGAUACCAGCCUGAAUAAGGGCCCUUGGCAGCACCGCGCUAACUUUAUGUCUGCGAACC [Rebiercete],277
18,UAUAAAAUAACAGAUACCAGCGUGUUAUAAAACAUGAGGAUCACCCAUGUAGUGAUCAAGCGCCCUUGGCAGCUGGUAUUUUAUG [7.C],58.1
19,UACAGUACAACAGAUACCAGACAGUACUCUAGAUUGCAACAUGAGGAUCACCCAUGUAUAGUCCCUUGGCAGCUGUAAUGGGUGA [Theo B SS s1],77.2
20,CUCCCGUGGUCGGCCGCCACUGGAGGCCUUGCGCGACAUGAGGAUCACCCAUGUGUGCCCGGCGUCAGGACCGGGAUCGCGUGAG [#1 Same State - Tryptophan B Attempt #12 (HarryS)],13.8
21,GUCUGAGUCUGAAGGAGCGACAUGAGGAUCACCCAUGUCUCCCGUUAUGGGAGUUCCUUAGGUCAGGUAGGUCGCAGACUCAGAC [#1 Exclusion - Arginine B Attempt #26 (Inspired by Omei)],108
22,AUAGUCUUGAGUGAUACCAGACUACAUGAGGAUCACCCAUGUUUCUUUUGGUUAUCAUGUGUCCCUUGGCAGCACGCAUGUAUAG [JR_ExcTheophyB_Sub014],12.6
23,GGUGGGACUUGUGAUACCAGCCCAGUUCUAAUCGAACUGCACAUGAGGAUCACCCAUGUCGGCCCUUGGCAGCAUGAGUAUUUAU [Esceesor],326
24,UUGUUGUUUGGAAGGAGCGUGUAUGAUUAAGAACAUGAGGAUCACCCAUGUUGUAGGGUAGCACAGGUAGGUCGCCGGGUGGUGG [11.V],21.1
25,UCGUGUGUUUCGGAUACCAGUGAAAUCGAUACAUGAGGAUCACCCAUGUGAGAGGAUGUACACCCUUGGCAGCUGUCUGUAGCGG [asczmullin],38.3
26,CCUUUUAUUAAUGAUACCAGCGUAUUAAGCAUCACCUUGGACAUGAGGAUCACCCAUGUACGCCCUUGGCAGCAUACCACUGGGU [theeternabot_exclusion_MS2_Theo_B_5],34.7

# Test system: MS2 coat protein
# Experiment: apparent KD of MS2 coat protein, switch ON state; designed switch direction (-1 OFF switch, 1 ON switch): -1; higher = weaker reporter binding
# Settings: FMN input: 0 or 200 uM; Eterna round: R93 (includes R88 designs)
# Method in brief: as §1
row,Sequence,apparent KD of MS2 coat protein [nM]
1,AAAAAACAUGAGGAUCACCCAUGUGAGGAUAUCAAAUAAAGGCACAUGAGAAGGCAUAUGAGAAGGCACAUGAA [Meechl MS2 Ex1 2],41.4
